Results as given in PMC2896673 (Journal of Biomedicine and Biotechnology, 2010).

Target: human procollagen V proα2(V) chain, produced in HEK-293 cells (human, UniProt P05997 27-1499)
Experiment: ion-exchange chromatography (DEAE-cellulose) with Western blot of the fractions; supernatant of medium of co-transfected HEK-293 cells (clone C22) after dialysis against 50 mM Tris-HCl pH 8.6; linear 0–0.6 M NaCl gradient; fractions double probed with mAb 18G5 and polyclonal antibodies to collagen V
Conditions: partners not purified

Sequence of human procollagen V proα2(V) chain, produced in HEK-293 cells (P05997 27-1499): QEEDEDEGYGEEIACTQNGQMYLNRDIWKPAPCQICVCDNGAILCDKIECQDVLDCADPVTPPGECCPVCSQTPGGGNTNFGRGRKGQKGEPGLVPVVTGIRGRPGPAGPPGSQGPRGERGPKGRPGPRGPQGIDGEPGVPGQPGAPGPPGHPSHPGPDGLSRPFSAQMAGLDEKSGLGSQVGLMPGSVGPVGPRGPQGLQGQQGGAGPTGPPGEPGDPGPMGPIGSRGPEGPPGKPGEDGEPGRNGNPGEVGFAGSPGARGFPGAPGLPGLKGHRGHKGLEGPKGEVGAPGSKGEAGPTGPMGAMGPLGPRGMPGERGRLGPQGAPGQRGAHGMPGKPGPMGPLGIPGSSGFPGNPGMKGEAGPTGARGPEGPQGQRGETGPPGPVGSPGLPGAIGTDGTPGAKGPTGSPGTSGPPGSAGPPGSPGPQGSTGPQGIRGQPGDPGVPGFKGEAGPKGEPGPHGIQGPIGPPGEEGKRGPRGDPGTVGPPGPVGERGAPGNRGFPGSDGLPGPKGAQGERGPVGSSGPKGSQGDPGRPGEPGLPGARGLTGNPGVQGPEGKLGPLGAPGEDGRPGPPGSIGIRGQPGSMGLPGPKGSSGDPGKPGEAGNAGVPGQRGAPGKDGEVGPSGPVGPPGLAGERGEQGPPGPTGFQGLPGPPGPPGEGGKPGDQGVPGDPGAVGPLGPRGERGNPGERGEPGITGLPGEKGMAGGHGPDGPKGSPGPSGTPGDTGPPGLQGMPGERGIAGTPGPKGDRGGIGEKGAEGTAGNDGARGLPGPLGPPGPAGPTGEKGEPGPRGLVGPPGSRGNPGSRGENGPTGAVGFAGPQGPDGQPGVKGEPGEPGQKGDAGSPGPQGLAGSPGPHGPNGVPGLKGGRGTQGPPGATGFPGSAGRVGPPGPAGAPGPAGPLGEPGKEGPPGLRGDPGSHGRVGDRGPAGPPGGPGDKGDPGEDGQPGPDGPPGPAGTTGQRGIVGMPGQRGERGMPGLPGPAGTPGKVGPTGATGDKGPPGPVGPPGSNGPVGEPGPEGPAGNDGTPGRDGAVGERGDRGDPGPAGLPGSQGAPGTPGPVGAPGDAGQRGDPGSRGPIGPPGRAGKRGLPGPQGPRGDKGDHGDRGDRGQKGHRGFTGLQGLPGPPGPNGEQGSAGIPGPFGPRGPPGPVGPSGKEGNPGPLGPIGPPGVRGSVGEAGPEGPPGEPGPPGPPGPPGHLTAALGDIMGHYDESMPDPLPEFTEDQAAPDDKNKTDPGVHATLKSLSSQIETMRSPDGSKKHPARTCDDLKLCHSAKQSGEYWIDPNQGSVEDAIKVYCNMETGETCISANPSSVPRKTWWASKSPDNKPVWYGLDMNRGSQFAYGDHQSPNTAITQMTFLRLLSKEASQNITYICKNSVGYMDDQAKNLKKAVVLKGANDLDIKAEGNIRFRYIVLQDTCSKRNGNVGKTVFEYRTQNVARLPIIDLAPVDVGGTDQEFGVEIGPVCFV

B1: human procollagen V proα1(V) chain, produced in HEK-293 cells (natural protein, UniProt P20908 38-1838, looked up)
chain: QPADLLKVLDFHNLPDGITKTTGFCATRRSSKGPDVAYRVTKDAQLSAPTKQLYPASAFPEDFSILTTVKAKKGSQAFLVSIYNEQGIQQIGLELGRSPVFLYEDHTGKPGPEDYPLFRGINLSDGKWHRIALSVHKKNVTLILDCKKKTTKFLDRSDHPMIDINGIIVFGTRILDEEVFEGDIQQLLFVSDHRAAYDYCEHYSPDCDTAVPDTPQSQDPNPDEYYTEGDGEGETYYYEYPYYEDPEDLGKEPTPSKKPVEAAKETTEVPEELTPTPTEAAPMPETSEGAGKEEDVGIGDYDYVPSEDYYTPSPYDDLTYGEGEENPDQPTDPGAGAEIPTSTADTSNSSNPAPPPGEGADDLEGEFTEETIRNLDENYYDPYYDPTSSPSEIGPGMPANQDTIYEGIGGPRGEKGQKGEPAIIEPGMLIEGPPGPEGPAGLPGPPGTMGPTGQVGDPGERGPPGRPGLPGADGLPGPPGTMLMLPFRFGGGGDAGSKGPMVSAQESQAQAILQQARLALRGPAGPMGLTGRPGPVGPPGSGGLKGEPGDVGPQGPRGVQGPPGPAGKPGRRGRAGSDGARGMPGQTGPKGDRGFDGLAGLPGEKGHRGDPGPSGPPGPPGDDGERGDDGEVGPRGLPGEPGPRGLLGPKGPPGPPGPPGVTGMDGQPGPKGNVGPQGEPGPPGQQGNPGAQGLPGPQGAIGPPGEKGPLGKPGLPGMPGADGPPGHPGKEGPPGEKGGQGPPGPQGPIGYPGPRGVKGADGIRGLKGTKGEKGEDGFPGFKGDMGIKGDRGEIGPPGPRGEDGPEGPKGRGGPNGDPGPLGPPGEKGKLGVPGLPGYPGRQGPKGSIGFPGFPGANGEKGGRGTPGKPGPRGQRGPTGPRGERGPRGITGKPGPKGNSGGDGPAGPPGERGPNGPQGPTGFPGPKGPPGPPGKDGLPGHPGQRGETGFQGKTGPPGPPGVVGPQGPTGETGPMGERGHPGPPGPPGEQGLPGLAGKEGTKGDPGPAGLPGKDGPPGLRGFPGDRGLPGPVGALGLKGNEGPPGPPGPAGSPGERGPAGAAGPIGIPGRPGPQGPPGPAGEKGAPGEKGPQGPAGRDGLQGPVGLPGPAGPVGPPGEDGDKGEIGEPGQKGSKGDKGEQGPPGPTGPQGPIGQPGPSGADGEPGPRGQQGLFGQKGDEGPRGFPGPPGPVGLQGLPGPPGEKGETGDVGQMGPPGPPGPRGPSGAPGADGPQGPPGGIGNPGAVGEKGEPGEAGEPGLPGEGGPPGPKGERGEKGESGPSGAAGPPGPKGPPGDDGPKGSPGPVGFPGDPGPPGEPGPAGQDGPPGDKGDDGEPGQTGSPGPTGEPGPSGPPGKRGPPGPAGPEGRQGEKGAKGEAGLEGPPGKTGPIGPQGAPGKPGPDGLRGIPGPVGEQGLPGSPGPDGPPGPMGPPGLPGLKGDSGPKGEKGHPGLIGLIGPPGEQGEKGDRGLPGPQGSSGPKGEQGITGPSGPIGPPGPPGLPGPPGPKGAKGSSGPTGPKGEAGHPGPPGPPGPPGEVIQPLPIQASRTRRNIDASQLLDDGNGENYVDYADGMEEIFGSLNSLKLEIEQMKRPLGTQQNPARTCKDLQLCHPDFPDGEYWVDPNQGCSRDSFKVYCNFTAGGSTCVFPDKKSEGARITSWPKENPGSWFSEFKRGKLLSYVDAEGNPVGVVQMTFLRLLSASAHQNVTYHCYQSVAWQDAATGSYDKALRFLGSNDEEMSYDNNPYIRALVDGCATKKGYQKTVLEIDTPKVEQVPIVDIMFNDFGEASQKFGFEVGPACFMG
  stoichiometry N: ~2
